Measured values as given in patent US20240018502A1.
One block for each binder: values may come before it.

Biological target: human complement protein C3 (human) (UniProt P01024)
Test: cell-based or functional assay

human complement protein C3 (human), sequence (P01024 23-667, chain 1 of 2): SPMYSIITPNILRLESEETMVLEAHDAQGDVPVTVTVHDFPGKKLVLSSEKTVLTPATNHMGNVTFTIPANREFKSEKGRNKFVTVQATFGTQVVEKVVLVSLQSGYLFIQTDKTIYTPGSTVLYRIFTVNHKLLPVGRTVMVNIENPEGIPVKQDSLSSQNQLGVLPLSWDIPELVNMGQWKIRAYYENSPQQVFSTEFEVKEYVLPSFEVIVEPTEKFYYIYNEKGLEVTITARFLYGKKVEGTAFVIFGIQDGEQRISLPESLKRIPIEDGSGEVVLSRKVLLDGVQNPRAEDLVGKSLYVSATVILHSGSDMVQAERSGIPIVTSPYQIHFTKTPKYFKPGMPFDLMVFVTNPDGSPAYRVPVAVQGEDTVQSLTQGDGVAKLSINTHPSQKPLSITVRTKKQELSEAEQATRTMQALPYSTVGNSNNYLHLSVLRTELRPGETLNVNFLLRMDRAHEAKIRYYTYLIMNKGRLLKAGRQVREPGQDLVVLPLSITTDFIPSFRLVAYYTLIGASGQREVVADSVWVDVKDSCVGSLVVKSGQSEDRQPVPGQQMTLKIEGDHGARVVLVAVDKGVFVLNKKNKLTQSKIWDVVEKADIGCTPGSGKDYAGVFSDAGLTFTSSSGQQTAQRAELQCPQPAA
human complement protein C3 (human), sequence (P01024 672-1663, chain 2 of 2): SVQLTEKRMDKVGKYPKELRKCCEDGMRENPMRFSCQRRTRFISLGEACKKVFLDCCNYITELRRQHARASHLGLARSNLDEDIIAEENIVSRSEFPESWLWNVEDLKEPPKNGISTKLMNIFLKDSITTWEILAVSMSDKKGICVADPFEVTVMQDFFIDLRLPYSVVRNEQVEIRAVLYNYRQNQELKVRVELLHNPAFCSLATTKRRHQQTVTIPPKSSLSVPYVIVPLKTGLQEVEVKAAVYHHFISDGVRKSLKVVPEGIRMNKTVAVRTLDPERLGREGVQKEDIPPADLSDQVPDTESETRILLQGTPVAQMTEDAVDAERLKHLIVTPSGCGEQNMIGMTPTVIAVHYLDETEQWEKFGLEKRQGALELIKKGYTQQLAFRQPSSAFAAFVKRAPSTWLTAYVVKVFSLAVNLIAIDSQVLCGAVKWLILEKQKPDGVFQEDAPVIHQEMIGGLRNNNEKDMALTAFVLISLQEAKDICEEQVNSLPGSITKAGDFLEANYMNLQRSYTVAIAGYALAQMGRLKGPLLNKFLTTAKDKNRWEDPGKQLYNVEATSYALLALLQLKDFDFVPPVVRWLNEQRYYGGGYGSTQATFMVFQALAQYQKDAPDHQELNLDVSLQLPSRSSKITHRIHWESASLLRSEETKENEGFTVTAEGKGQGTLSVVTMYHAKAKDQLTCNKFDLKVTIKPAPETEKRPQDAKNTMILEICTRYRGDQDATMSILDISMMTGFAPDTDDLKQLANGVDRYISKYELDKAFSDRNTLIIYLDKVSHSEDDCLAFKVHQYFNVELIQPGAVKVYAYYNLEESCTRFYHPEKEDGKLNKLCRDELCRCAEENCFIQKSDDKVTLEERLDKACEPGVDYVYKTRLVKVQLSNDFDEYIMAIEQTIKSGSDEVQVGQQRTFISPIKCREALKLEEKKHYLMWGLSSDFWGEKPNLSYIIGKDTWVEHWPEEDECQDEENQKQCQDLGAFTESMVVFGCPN

EC50 (nM), cleavage of purified hC3 in vitro: 1.97 nM
B1: Q38H/I41S/D60bY/D96Y/ins97aV/F97D/T98P/F99L/L106M/C122S/I136M/Q192G/Q209L/D217T (enzyme)
chain: VVGGTDADEGEWPWQVSLHALGHGHSCGASLISPNWLVSAAHCYIDYRGFRYSDPTQWTAFLGLHDQSQRSAPGVQERRLKRIISHPFFNYDVPLDYDIALMELEKPAEYSSMVRPISLPDASHVFPAGKAMWVTGWGHTQYGGTGALILQKGEIRVINQTTCENLLPQQITPRMMCVGFLSGGVDSCGGDSGGPLSSVEADGRIFLAGVVSWGTGCAQRNKPGVYTRLPLFRDWIKENTGV

EC50 (nM), cleavage of purified hC3 in vitro: 2.42 nM
B2: ins97aY/F97G/T98V/C122S/Q175M/Q192S/D217V (enzyme)
chain: VVGGTDADEGEWPWQVSLHALGQGHICGASLISPNWLVSAAHCYIDDRGFRYSDPTQWTAFLGLHDQSQRSAPGVQERRLKRIISHPFFNDGYVFDYDIALLELEKPAEYSSMVRPISLPDASHVFPAGKAIWVTGWGHTQYGGTGALILQKGEIRVINQTTCENLLPQMITPRMMCVGFLSGGVDSCSGDSGGPLSSVEADGRIFQAGVVSWGVGCAQRNKPGVYTRLPLFRDWIKENTGV

EC50 (nM), cleavage of purified hC3 in vitro: 1.31 nM
B3: Q38H/I41S/D60bT/F60eS/Y60gW/ins97aV/F97D/T98P/F99L/C122S/G151H/Q175L (enzyme)
chain: VVGGTDADEGEWPWQVSLHALGHGHSCGASLISPNWLVSAAHCYIDTRGSRWSDPTQWTAFLGLHDQSQRSAPGVQERRLKRIISHPFFNDDVPLDYDIALLELEKPAEYSSMVRPISLPDASHVFPAGKAIWVTGWGHTQYGGTHALILQKGEIRVINQTTCENLLPQLITPRMMCVGFLSGGVDSCQGDSGGPLSSVEADGRIFQAGVVSWGDGCAQRNKPGVYTRLPLFRDWIKENTGV

EC50 (nM), cleavage of purified hC3 in vitro: 1.53 nM
B10: Q38Y/I41A/D60bL/F60eQ/ins97aV/F97D/T98P/F99L/C122S/G151N/Q175M/Q192A (enzyme)
chain: VVGGTDADEGEWPWQVSLHALGYGHACGASLISPNWLVSAAHCYIDLRGQRYSDPTQWTAFLGLHDQSQRSAPGVQERRLKRIISHPFFNDDVPLDYDIALLELEKPAEYSSMVRPISLPDASHVFPAGKAIWVTGWGHTQYGGTNALILQKGEIRVINQTTCENLLPQMITPRMMCVGFLSGGVDSCAGDSGGPLSSVEADGRIFQAGVVSWGDGCAQRNKPGVYTRLPLFRDWIKENTGV

EC50 (nM), cleavage of purified hC3 in vitro: 1.43 nM
B11: Q38H/I41S/D60bT/F60eS/Y60gW/D96K/F97G/ins97aA/T98P/F99L/C122S/G151H/Q175L/Q192D (enzyme)
chain: VVGGTDADEGEWPWQVSLHALGHGHSCGASLISPNWLVSAAHCYIDTRGSRWSDPTQWTAFLGLHDQSQRSAPGVQERRLKRIISHPFFNKGAPLDYDIALLELEKPAEYSSMVRPISLPDASHVFPAGKAIWVTGWGHTQYGGTHALILQKGEIRVINQTTCENLLPQLITPRMMCVGFLSGGVDSCDGDSGGPLSSVEADGRIFQAGVVSWGDGCAQRNKPGVYTRLPLFRDWIKENTGV

EC50 (nM), cleavage of purified hC3 in vitro: 1.45 nM
B16: Q38H/I41S/D60bT/F60eS/Y60gW/D96K/F97G/ins97aV/T98P/F99L/C122S/G151H/Q175L (enzyme)
chain: VVGGTDADEGEWPWQVSLHALGHGHSCGASLISPNWLVSAAHCYIDTRGSRWSDPTQWTAFLGLHDQSQRSAPGVQERRLKRIISHPFFNKGVPLDYDIALLELEKPAEYSSMVRPISLPDASHVFPAGKAIWVTGWGHTQYGGTHALILQKGEIRVINQTTCENLLPQLITPRMMCVGFLSGGVDSCQGDSGGPLSSVEADGRIFQAGVVSWGDGCAQRNKPGVYTRLPLFRDWIKENTGV

EC50 (nM), cleavage of purified hC3 in vitro: 1.59 nM
B18: Q38H/I41S/D60bT/F60eS/Y60gW/D96L/ins97aG/F97D/T98N/F99L/C122S/G151H/Q175L/Q192E (enzyme)
chain: VVGGTDADEGEWPWQVSLHALGHGHSCGASLISPNWLVSAAHCYIDTRGSRWSDPTQWTAFLGLHDQSQRSAPGVQERRLKRIISHPFFNLDGNLDYDIALLELEKPAEYSSMVRPISLPDASHVFPAGKAIWVTGWGHTQYGGTHALILQKGEIRVINQTTCENLLPQLITPRMMCVGFLSGGVDSCEGDSGGPLSSVEADGRIFQAGVVSWGDGCAQRNKPGVYTRLPLFRDWIKENTGV

The remaining lines, values behind:

B4: Q38H/I41A/D60bV/F60eR/Y60gW/D96I/ins97aN/F97Y/T98G/F99L/C122S/G151N/Q175L/Q192D (enzyme)
chain: VVGGTDADEGEWPWQVSLHALGHGHACGASLISPNWLVSAAHCYIDVRGRRWSDPTQWTAFLGLHDQSQRSAPGVQERRLKRIISHPFFNIYNGLDYDIALLELEKPAEYSSMVRPISLPDASHVFPAGKAIWVTGWGHTQYGGTNALILQKGEIRVINQTTCENLLPQLITPRMMCVGFLSGGVDSCDGDSGGPLSSVEADGRIFQAGVVSWGDGCAQRNKPGVYTRLPLFRDWIKENTGV
EC50 (nM), cleavage of purified hC3 in vitro: 2.23 nM

B5: Q38H/I41A/D60bV/F60eR/Y60gW/ins97aE/F97T/T98G/F99L/C122S/Q175L/Q192D (enzyme)
chain: VVGGTDADEGEWPWQVSLHALGHGHACGASLISPNWLVSAAHCYIDVRGRRWSDPTQWTAFLGLHDQSQRSAPGVQERRLKRIISHPFFNDTEGLDYDIALLELEKPAEYSSMVRPISLPDASHVFPAGKAIWVTGWGHTQYGGTGALILQKGEIRVINQTTCENLLPQLITPRMMCVGFLSGGVDSCDGDSGGPLSSVEADGRIFQAGVVSWGDGCAQRNKPGVYTRLPLFRDWIKENTGV
EC50 (nM), cleavage of purified hC3 in vitro: 2.37 nM

B6: Q38H/I41A/D60bV/F60eR/Y60gW/D96P/ins97aN/F97W/T98G/F99L/C122S/G151H/Q175L/Q192D (enzyme)
chain: VVGGTDADEGEWPWQVSLHALGHGHACGASLISPNWLVSAAHCYIDVRGRRWSDPTQWTAFLGLHDQSQRSAPGVQERRLKRIISHPFFNPWNGLDYDIALLELEKPAEYSSMVRPISLPDASHVFPAGKAIWVTGWGHTQYGGTHALILQKGEIRVINQTTCENLLPQLITPRMMCVGFLSGGVDSCDGDSGGPLSSVEADGRIFQAGVVSWGDGCAQRNKPGVYTRLPLFRDWIKENTGV
EC50 (nM), cleavage of purified hC3 in vitro: 1.83 nM

B7: Q38H/I41A/D60bV/F60eR/Y60gW/D96I/ins97aN/F97Y/T98G/F99L/C122S/G151H/Q175L/Q192D (enzyme)
chain: VVGGTDADEGEWPWQVSLHALGHGHACGASLISPNWLVSAAHCYIDVRGRRWSDPTQWTAFLGLHDQSQRSAPGVQERRLKRIISHPFFNIYNGLDYDIALLELEKPAEYSSMVRPISLPDASHVFPAGKAIWVTGWGHTQYGGTHALILQKGEIRVINQTTCENLLPQLITPRMMCVGFLSGGVDSCDGDSGGPLSSVEADGRIFQAGVVSWGDGCAQRNKPGVYTRLPLFRDWIKENTGV
EC50 (nM), cleavage of purified hC3 in vitro: 1.57 nM

B8: Q38H/I41A/D60bT/F60eH/Y60gW/ins97aE/F97T/T98G/F99L/C122S/Q175L/Q192D (enzyme)
chain: VVGGTDADEGEWPWQVSLHALGHGHACGASLISPNWLVSAAHCYIDTRGHRWSDPTQWTAFLGLHDQSQRSAPGVQERRLKRIISHPFFNDTEGLDYDIALLELEKPAEYSSMVRPISLPDASHVFPAGKAIWVTGWGHTQYGGTGALILQKGEIRVINQTTCENLLPQLITPRMMCVGFLSGGVDSCDGDSGGPLSSVEADGRIFQAGVVSWGDGCAQRNKPGVYTRLPLFRDWIKENTGV
EC50 (nM), cleavage of purified hC3 in vitro: 2.28 nM

B9: Q38H/I41S/D60bF/F60eV/F97D/ins97aV/T98P/F99L/C122S/G151N/Q175L/Q192A (enzyme)
chain: VVGGTDADEGEWPWQVSLHALGHGHSCGASLISPNWLVSAAHCYIDFRGVRYSDPTQWTAFLGLHDQSQRSAPGVQERRLKRIISHPFFNDDVPLDYDIALLELEKPAEYSSMVRPISLPDASHVFPAGKAIWVTGWGHTQYGGTNALILQKGEIRVINQTTCENLLPQLITPRMMCVGFLSGGVDSCAGDSGGPLSSVEADGRIFQAGVVSWGDGCAQRNKPGVYTRLPLFRDWIKENTGV
EC50 (nM), cleavage of purified hC3 in vitro: 1.57 nM

B12: Q38H/I41A/D60bV/F60eR/Y60gW/D96S/ins97aR/F97A/T98S/F99L/C122S/G151N/Q175L/Q192T (enzyme)
chain: VVGGTDADEGEWPWQVSLHALGHGHACGASLISPNWLVSAAHCYIDVRGRRWSDPTQWTAFLGLHDQSQRSAPGVQERRLKRIISHPFFNSARSLDYDIALLELEKPAEYSSMVRPISLPDASHVFPAGKAIWVTGWGHTQYGGTNALILQKGEIRVINQTTCENLLPQLITPRMMCVGFLSGGVDSCTGDSGGPLSSVEADGRIFQAGVVSWGDGCAQRNKPGVYTRLPLFRDWIKENTGV
EC50 (nM), cleavage of purified hC3 in vitro: 2.07 nM

B13: Q38H/I41A/D60bV/F60eR/Y60gW/D96P/ins97aN/F97W/T98G/F99L/C122S/G151N/Q175L/Q192E (enzyme)
chain: VVGGTDADEGEWPWQVSLHALGHGHACGASLISPNWLVSAAHCYIDVRGRRWSDPTQWTAFLGLHDQSQRSAPGVQERRLKRIISHPFFNPWNGLDYDIALLELEKPAEYSSMVRPISLPDASHVFPAGKAIWVTGWGHTQYGGTNALILQKGEIRVINQTTCENLLPQLITPRMMCVGFLSGGVDSCEGDSGGPLSSVEADGRIFQAGVVSWGDGCAQRNKPGVYTRLPLFRDWIKENTGV
EC50 (nM), cleavage of purified hC3 in vitro: 1.51 nM

B14: Q38H/I41A/D60bV/F60eT/Y60gW/ins97aE/F97T/T98G/F99L/C122S/Q175L/Q192E (enzyme)
chain: VVGGTDADEGEWPWQVSLHALGHGHACGASLISPNWLVSAAHCYIDVRGTRWSDPTQWTAFLGLHDQSQRSAPGVQERRLKRIISHPFFNDTEGLDYDIALLELEKPAEYSSMVRPISLPDASHVFPAGKAIWVTGWGHTQYGGTGALILQKGEIRVINQTTCENLLPQLITPRMMCVGFLSGGVDSCEGDSGGPLSSVEADGRIFQAGVVSWGDGCAQRNKPGVYTRLPLFRDWIKENTGV
EC50 (nM), cleavage of purified hC3 in vitro: 1.39 nM

B15: Q38H/I41S/D60bS/ins97aV/F97D/T98P/F99L/M117L/C122S/I136T/Q192G/D217I (enzyme)
chain: VVGGTDADEGEWPWQVSLHALGHGHSCGASLISPNWLVSAAHCYIDSRGFRYSDPTQWTAFLGLHDQSQRSAPGVQERRLKRIISHPFFNDDVPLDYDIALLELEKPAEYSSLVRPISLPDASHVFPAGKATWVTGWGHTQYGGTGALILQKGEIRVINQTTCENLLPQQITPRMMCVGFLSGGVDSCGGDSGGPLSSVEADGRIFQAGVVSWGIGCAQRNKPGVYTRLPLFRDWIKENTGV
EC50 (nM), cleavage of purified hC3 in vitro: 2.43 nM

B17: Q38F/I41S/D60bF/F60eR/Y60gF/F97T/ins97aE/T98G/F99L/C122S/G151N/Q175L/Q192V (enzyme)
chain: VVGGTDADEGEWPWQVSLHALGFGHSCGASLISPNWLVSAAHCYIDFRGRRFSDPTQWTAFLGLHDQSQRSAPGVQERRLKRIISHPFFNDTEGLDYDIALLELEKPAEYSSMVRPISLPDASHVFPAGKAIWVTGWGHTQYGGTNALILQKGEIRVINQTTCENLLPQLITPRMMCVGFLSGGVDSCVGDSGGPLSSVEADGRIFQAGVVSWGDGCAQRNKPGVYTRLPLFRDWIKENTGV
EC50 (nM), cleavage of purified hC3 in vitro: 1.96 nM

B19: Q38H/I41A/D60bV/F60eA/Y60gW/F97T/ins97aE/T98G/F99L/C122S/Q175L/Q192V (enzyme)
chain: VVGGTDADEGEWPWQVSLHALGHGHACGASLISPNWLVSAAHCYIDVRGARWSDPTQWTAFLGLHDQSQRSAPGVQERRLKRIISHPFFNDTEGLDYDIALLELEKPAEYSSMVRPISLPDASHVFPAGKAIWVTGWGHTQYGGTGALILQKGEIRVINQTTCENLLPQLITPRMMCVGFLSGGVDSCVGDSGGPLSSVEADGRIFQAGVVSWGDGCAQRNKPGVYTRLPLFRDWIKENTGV
EC50 (nM), cleavage of purified hC3 in vitro: 1.57 nM

B20: Q38H/I41A/D60bV/F60eR/Y60gW/D96I/F97N/T98G/F99L/C122S/G151H/Q175L/Q192D (enzyme)
chain: VVGGTDADEGEWPWQVSLHALGHGHACGASLISPNWLVSAAHCYIDVRGRRWSDPTQWTAFLGLHDQSQRSAPGVQERRLKRIISHPFFNINGLDYDIALLELEKPAEYSSMVRPISLPDASHVFPAGKAIWVTGWGHTQYGGTHALILQKGEIRVINQTTCENLLPQLITPRMMCVGFLSGGVDSCDGDSGGPLSSVEADGRIFQAGVVSWGDGCAQRNKPGVYTRLPLFRDWIKENTGV
EC50 (nM), cleavage of purified hC3 in vitro: 2.52 nM
